T1: human PD-L2 (full length, on CHO cells) (human, UniProt Q9BQ51 20-273)
T1 construct: whole, on cells; also called CHO-PD-L2 cells
T1 sequence (looked up): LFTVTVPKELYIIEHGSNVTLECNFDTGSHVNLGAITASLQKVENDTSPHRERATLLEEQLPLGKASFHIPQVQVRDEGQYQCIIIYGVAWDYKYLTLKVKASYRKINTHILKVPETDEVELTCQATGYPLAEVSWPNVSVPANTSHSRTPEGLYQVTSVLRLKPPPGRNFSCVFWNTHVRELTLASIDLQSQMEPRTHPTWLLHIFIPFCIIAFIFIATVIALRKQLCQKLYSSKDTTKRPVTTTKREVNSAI

B1: IgG1-511-LC33S-FEAR (antibody, V domains shown)
VH: QVQLVQSGSELKKPGASVMVSCKASGYTFTSYVMNWVRQAPGQGLEWMGWINSYTGNPTSAQGFTGRFVFSFDTSVNTAYLQISSLKAEDTAVYYCARGYCTSTSCYLDYWGQGTLVTVSS
VL: SYELTQPPSVSVSPGHTARITCSGDALPKKYASWFQQKSGQAPVLVIYEDSKRPSGIPERFSGSTSGTMATLTISGAQVEDETDYYCYSADTSGTHRVFGGGTKLTVLG
B2: IgG1-338-FEAR (antibody, V domains shown)
VH: EVQVVESGGGLVQPGGSLRLSCAASGFTFSRFWMSWVRQAPGKGLEWVANIKQDGGEKYYVDSVKGRFTISRDNAKNSLYLQMNSLRGEDTAVYYCARDDNWNGHFDYWGQGTLVTVSS
VL: DIQMTQSPSTLSASVGDRVTITCRASQSISSWLAWYQQKPGKAPNLLIYKASSLESGVPSRFSGSGSGTEFTLTISSLQPDDFATYYCQQYYGSYITFGQGTRLEIKR
B3: IgG1-547-FEAR (antibody, V domains shown)
VH: EVQLLEPGGGLVQPGGSLRLSCEASGSTFSTYAMSWVRQAPGKGLEWVSGFSGSGGFTFYADSVRGRFTISRDSSKNTLFLQMSSLRAEDTAVYYCAIPARGYNYGSFQHWGQGTLVTVSS
VL: SYVLTQPPSVSVAPGQTARITCGGNNIGSKSVHWYQQKPGQAPVLVVYDDNDRPSGLPERFSGSNSGNTATLTISRVEAGDEADYYCQVWDSSSDHVVFGGGTKLTVLG

What follows are binders tested against T2, PDLoneECDHisCtag (human, UniProt Q9NZQ7 19-238) (assay: BLI cross-block, second antibody on PDLoneECDHisCtag held by immobilised 321; bold = blocking).
T2 construct: Expressed in HEK-293F cells; theoretical molecular weight 29 kDa; also called recombinant human PD-L1 ECD; human PD-L1 (BLI); not shown: C-terminal His-tag; C-tag
T2 sequence (Q9NZQ7 19-238, form in doubt): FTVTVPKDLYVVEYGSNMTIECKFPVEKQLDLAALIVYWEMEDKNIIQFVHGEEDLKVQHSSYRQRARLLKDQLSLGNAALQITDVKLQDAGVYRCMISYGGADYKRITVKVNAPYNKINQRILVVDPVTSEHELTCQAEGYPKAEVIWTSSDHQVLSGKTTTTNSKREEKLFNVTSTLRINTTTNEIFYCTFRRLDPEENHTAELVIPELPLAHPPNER
Experimental: (§1) Antibody cross-block testing was performed using biolayer interferometry (BLI) on an Octet HTX instrument (ForteBio). Antibodies (20 μg/ml in 10 mM sodium acetate buffer pH 6.0 (ForteBio)) were immobilized on Amine-Reactive 2nd Generation (AR2G) biosensors (ForteBio) according to the instructions of the manufacturer. After a baseline (50 s) in Sample Diluent (ForteBio), biosensors containing immobilized antibodies were loaded for 500 s with PDLoneECDHisCtag (100 nM or 2.7 μg/ml), after which the association response of a second antibody (10 μg/ml) was followed for 500 s. Biosensors were regenerated by using 3 times 5 s alternating exposures to 10 mM glycine pH 2.5 and Sample Diluent. The experiment was repeated with a new set of second antibodies starting from the baseline step. Each biosensor was used 6 times. The experiment was performed at 30° C. using a shaker speed of 1000 rpm. Data was analyzed using Data Analysis Software v9.0.0.12 (ForteBio). The Y-axis was aligned to the association step and Savitzky-Golay filtering was applied. The average buffer response was subtracted from the association response of the second antibody in order to correct for the dissociation of PDLoneECDHisCtag from the immobilized antibody. The corrected association responses were plotted in a matrix format.

association response of the second antibody | Binder
0 nm | B1
0 nm | B2
0 nm | B3

These binders were tested against T2, PDLoneECDHisCtag (assay: BLI cross-block, second antibody on PDLoneECDHisCtag held by immobilised MPDL; bold = blocking).
Experimental: as §1

association response of the second antibody | Binder
0 nm | B1
0 nm | B2
0 nm | B3

The binders below were run against T3, cynomolgus PD-L1/137-H1 protein (Acro Biosystems, cat. No. PD1-052H4-100) (cynomolgus, UniProt G7PSE7 19-239) (assay: BLI (Octet HTX), average of 3 experiments).
T3 construct: also called cynomolgus PD-L1 (BLI)
T3 sequence (G7PSE7 entry or part of it): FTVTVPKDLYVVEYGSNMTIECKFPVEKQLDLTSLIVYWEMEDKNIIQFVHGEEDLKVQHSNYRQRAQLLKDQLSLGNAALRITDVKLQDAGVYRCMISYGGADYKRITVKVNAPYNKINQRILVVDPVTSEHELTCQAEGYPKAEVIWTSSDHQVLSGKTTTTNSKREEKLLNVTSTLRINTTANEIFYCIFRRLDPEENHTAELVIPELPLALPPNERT
Experimental: In a first set of experiments, affinities for recombinant-expressed human PD-L1 protein were determined using Bio-layer interferometry (BLI) on an Octet HTX instrument (ForteBio). Anti-Human IgG Fc Capture (AHC) biosensors (ForteBio) were loaded for 900 s with antibodies (1 μg/ml). […] The experiment was carried out while shaking at 1000 rpm at 30° C. Data was analyzed with Data Analysis Software v9.0.0.12 (ForteBio) using the 1:1 model and a global full fit with 1000 s association time and 200 or 1000 s dissociation time. Data traces were corrected by subtraction of a buffer reference, the Y-axis was aligned to the last 10 s of the baseline, and interstep correction as well as Savitzky-Golay filtering was applied. Data traces with a response <0.05 nm were excluded from analysis. As default, the fit using 1000 s dissociation time was used.
The experimental set-up was as described above, with the exception of [0466] Loading time of AHC biosensors with antibodies was 600 s; [0467] Baseline was 300 s; [0468]

Fold difference of KD (cynomolgus against human PD-L1) | Binder
2.3 fold | B1
2.3 fold | B2
2.3 fold | B3

Each binder was assayed against T3, cynomolgus PD-L1/137-H1 protein (Acro …) (assay: BLI (Octet HTX), average of 3 experiments; antibody on AHC sensor, cynomolgus PD-L1 protein (Acro Biosystems) as analyte).

Kd | koff | kon | Binder
12 nM | 0.0052 s⁻¹ | 450000 M⁻¹ s⁻¹ | B1
0.73 nM | 0.00028 s⁻¹ | 390000 M⁻¹ s⁻¹ | B2
0.27 nM | 0.00012 s⁻¹ | 440000 M⁻¹ s⁻¹ | B3

What follows are binders tested against T4, human PD-L1 (full length, on cells) (human, UniProt Q9NZQ7 19-290) (assay: flow cytometry on MDA-MB-231 cells, PE anti-human IgG secondary, MFI (PE)).
T4 construct: The entry holds the signal peptide; also called CD274; B7H1
T4 sequence (Q9NZQ7 19-290 limits assumed): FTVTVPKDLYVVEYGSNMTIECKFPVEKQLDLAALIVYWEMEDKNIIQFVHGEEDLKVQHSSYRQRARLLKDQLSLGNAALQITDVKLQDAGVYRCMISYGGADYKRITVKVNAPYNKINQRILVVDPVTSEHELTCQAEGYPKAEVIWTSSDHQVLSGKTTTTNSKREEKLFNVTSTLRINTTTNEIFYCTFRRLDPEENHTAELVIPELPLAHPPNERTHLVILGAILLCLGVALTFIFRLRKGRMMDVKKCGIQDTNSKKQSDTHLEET
Experimental: (§2) Cells (3-5×10⁴ cells/well) were incubated in polystyrene 96-well round-bottom plates (Greiner bio-one, cat. no. 650101) with serial dilutions of antibodies (range 0.0001 to 10 μg/mL in 5-fold dilution steps) in 50 μL PBS/0.1% BSA/0.02% azide (staining buffer) at 4° C. for 30 min.
(§3) After washing twice in staining buffer, cells were incubated in 50 μL secondary antibody at 4° C. for 30 min. As a secondary antibody, R-Phycoerythrin (PE)-conjugated goat-anti-human IgG F(ab′)₂ (Cat. no. 109-116-098, Jackson ImmunoResearch Laboratories, Inc., West Grove, Pa.) diluted 1:500 in staining buffer, was used for all experiments. Next, cells were washed twice in staining buffer, re-suspended in 20 μL staining buffer and analyzed on an iQue screener (Intellicyt Corporation, USA). Binding curves were analyzed using non-linear regression (sigmoidal dose-response with variable slope) using GraphPad Prism V75.04 software (GraphPad Software, San Diego, Calif., USA).

EC50 (read off the curve) | Binder
~0.04 mg/L | B1
~0.06 mg/L | B2
~0.06 mg/L | B3

These binders were tested against T1, human PD-L2 (full length, on CHO cells) (assay: flow cytometry on CHO cells expressing human PD-L2).
Experimental: as §2, §3
A PE-conjugated PD-L2 specific antibody (Mylteni, clone MIH18; cat. no. 130-098-651) was used as positive control.

binding result | Binder
no binding | B1
no binding | B2
no binding | B3

These binders were tested against T2, PDLoneECDHisCtag (assay: BLI cross-block, second antibody on PDLoneECDHisCtag held by immobilised MEDI; bold = blocking).
Experimental: as §1

association response of the second antibody | Binder
0 nm | B1
0 nm | B2
0 nm | B3

What follows are binders tested against T2, PDLoneECDHisCtag (assay: BLI cross-block, second antibody on PDLoneECDHisCtag held by immobilised 338; bold = blocking).
Experimental: as §1

association response of the second antibody | Binder
0 nm | B1
0 nm | B2
0 nm | B3

Each binder was assayed against T2, PDLoneECDHisCtag (assay: BLI cross-block, second antibody on PDLoneECDHisCtag held by immobilised 516; plain = non-blocking).
Experimental: as §1

association response of the second antibody | Binder
1.1 nm | B1
1.1 nm | B2
0.8 nm | B3
